Where two headings read alike, the source gives them in different places.
How the values were obtained:
[1] = target: T1, human SIRPα v2-Fc (SIRPα2 extracellular domain fused to human IGHG1_Fc) (human, UniProt P78324 31-373; P0DOX5 223-449 = IgG part); test: BLI Octet, antigen-Fc on biosensor;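 further: antigen captured on the biosensor tip and then immersed in solutions of the test antibodies, which act as the analyte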
T1 construct: as m38; also called V2 (e.g. SIRPα2); SIRPα V2:ESE

[2] = target: T2, mouse SIRPα-Fc (mouse); test: BLI Octet, antigen-Fc on biosensor;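 on result: antigen captured on the biosensor tip and then immersed in solutions of the test antibodies, which act as the analyte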
T2 construct: a signal peptide may be part of the entry; also called Ms; Ms SIRPα-Fc

[3] = target: T3, human SIRPα v3-Fc (SIRPα3 extracellular domain fused to human IGHG1_Fc) (human, UniProt P78324 31-373; P0DOX5 223-449 = IgG part); test: BLI Octet, antigen-Fc on biosensor;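 further: antigen captured on the biosensor tip and then immersed in solutions of the test antibodies, which act as the analyte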
T3 construct: as m38; also called V3 (e.g. SIRPα3)

[4] = target: T4, human SIRPα on cells (human, UniProt P78324 31-504); test: cell binding, Hu SIRPα-CHO-K1 cells, 100 nM antibody
T4 construct: whole, on cells; also called human SIRPα-CHO; Hu SIRPα-CHO-K1

[5] = target: T5, cynomolgus SIRPα on cells (cynomolgus, UniProt P78324 31-373 (human entry)); test: cell binding, Cyno SIRPα-CHO-K1 cells, 100 nM antibody
T5 construct: also called cyno SIRPα-CHO; Cyno SIRPα-CHO-K1; not shown: Transmembrane and cytoplasmic region of cynomolgus SIRPα
T5 chain: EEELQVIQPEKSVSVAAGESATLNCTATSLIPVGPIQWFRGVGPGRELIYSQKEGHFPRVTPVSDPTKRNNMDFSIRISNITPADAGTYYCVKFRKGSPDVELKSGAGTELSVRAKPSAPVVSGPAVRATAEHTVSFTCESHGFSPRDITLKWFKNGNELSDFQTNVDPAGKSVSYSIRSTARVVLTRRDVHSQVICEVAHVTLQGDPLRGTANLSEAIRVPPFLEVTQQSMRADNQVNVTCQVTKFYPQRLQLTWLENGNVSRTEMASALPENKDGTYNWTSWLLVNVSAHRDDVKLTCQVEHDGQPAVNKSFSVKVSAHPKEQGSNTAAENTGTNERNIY

[6] = target: T6, human SIRPα v1-Fc (SIRPα1 extracellular domain fused to human IGHG1_Fc) (human, UniProt P78324 31-373; P0DOX5 223-449 = IgG part); test: BLI Octet, antigen-Fc on biosensor;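 further: antigen captured on the biosensor tip and then immersed in solutions of the test antibodies, which act as the analyte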
T6 construct: also called V1 (e.g. SIRPα1); SIRPα V1: DLN

[7] = target: T7, human SIRPβ-Fc (human); test: BLI Octet, antigen-Fc on biosensor
T7 construct: a signal peptide may be part of the entry

[8] = target: T8, human SIRPγ-Fc (human); test: BLI Octet, antigen-Fc on biosensor
T8 construct: a signal peptide may be part of the entry

[9] = target: T9, human SIRPα v5-Fc (SIRPα5 extracellular domain fused to human IGHG1_Fc) (human, UniProt P78324 31-373; P0DOX5 223-449 = IgG part); test: BLI Octet, antigen-Fc on biosensor
T9 construct: as m38; also called V5 (e.g. SIRPα5)

[10] = target: T10, human SIRPα v6-Fc (SIRPα6 extracellular domain fused to human IGHG1_Fc) (human, UniProt P78324 31-373; P0DOX5 223-449 = IgG part); test: BLI Octet, antigen-Fc on biosensor
T10 construct: as m38; also called V6 (e.g. SIRPα6)

[11] = target: T11, cyno SIRPα-Fc (cynomolgus); test: BLI Octet, antigen-Fc on biosensor
T11 construct: a signal peptide may be part of the entry

[12] = target: T12, human SIRPα v4-Fc (SIRPα4 extracellular domain fused to human IGHG1_Fc) (human, UniProt P78324 31-373; P0DOX5 223-449 = IgG part); test: BLI Octet, antigen-Fc on biosensor
T12 construct: as m38; also called V4 (e.g. SIRPα4)

[13] = target: T2, mouse SIRPα-Fc; test: BLI Octet, antigen-Fc on biosensor; remark: listed apart in the source

T2 sequence (chain, as listed by the source limits assumed): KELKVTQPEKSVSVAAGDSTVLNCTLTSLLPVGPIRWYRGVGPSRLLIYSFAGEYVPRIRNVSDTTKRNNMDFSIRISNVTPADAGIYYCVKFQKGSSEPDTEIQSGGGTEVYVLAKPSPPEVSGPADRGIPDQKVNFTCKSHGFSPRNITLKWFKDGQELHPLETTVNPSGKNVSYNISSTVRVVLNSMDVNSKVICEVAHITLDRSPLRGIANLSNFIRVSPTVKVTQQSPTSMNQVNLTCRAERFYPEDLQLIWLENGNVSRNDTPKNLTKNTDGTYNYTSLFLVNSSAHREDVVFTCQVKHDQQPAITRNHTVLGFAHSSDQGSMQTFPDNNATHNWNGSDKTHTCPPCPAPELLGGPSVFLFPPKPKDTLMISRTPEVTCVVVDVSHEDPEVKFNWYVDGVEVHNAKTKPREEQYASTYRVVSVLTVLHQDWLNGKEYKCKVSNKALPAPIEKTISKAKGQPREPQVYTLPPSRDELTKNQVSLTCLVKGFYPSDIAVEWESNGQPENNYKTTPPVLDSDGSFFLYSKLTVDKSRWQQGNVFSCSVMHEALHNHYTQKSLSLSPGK

B1: SIRPAB-8 (antibody, human IgG1, kappa, V domains shown)
VH: QVQLVQSGAEVKKPGASVKVSCKASGYTFTSYGISWVRQAPGQGLEWMGWISPYNGNTNYAQKLQGRVTMTTDTSTSTAYMELRSLRSDDTAVYYCAREAGSSWYDFDLWGRGTLVTVSS
VL: DIQMTQSPSSVSASVGDRVTITCRASQGISSWLAWYQQKPGKAPKLLIYAASNLQSGVPSRFSGSGSGTDFTLTISSLQPEDFATYYCQQGASFPITFGGGTKVEIKR
[1]
  binding result: no binding
[2]
  binding result: no binding
[3]
  Kd: 22.3 nM
  koff: 0.0226 s⁻¹
  kon: 1.02e+06 M⁻¹ s⁻¹
[4]
  fold increase over background (100 nM): 1310 fold
[5]
  fold increase over background (100 nM): 1020 fold

B2: SIRPAB-13 (antibody, human IgG1, kappa, V domains shown)
VH: QVQLVQSGAEVKKPGASVKVSCKASGYTFHGYGISWVRQAPGQGLEWMGWISAYSGETNYAQKLQGRVTMTTDTSTSTAYMELRSLRSDDTAVYYCAREAGSSWYDFDLWGRGTLVTVSS
VL: DIQMTQSPSSVSASVGDRVTITCRASQGISSWLAWYQQKPGKAPKLLIYAASNLQSGVPSRFSGSGSGTDFTLTISSLQPEDFATYYCQQGASFPITFGGGTKVEIKR
[6]
  Kd: 1.65 nM
  koff: 0.00205 s⁻¹
  kon: 1.24e+06 M⁻¹ s⁻¹
[1]
  Kd: 17.2 nM
  koff: 0.0172 s⁻¹
  kon: 1e+06 M⁻¹ s⁻¹
[2]
  binding result: no binding
[7]
  Kd: 4.52 nM
  koff: 0.00544 s⁻¹
  kon: 1.21e+06 M⁻¹ s⁻¹
[8]
  Kd: 4.12 nM
  koff: 0.00558 s⁻¹
  kon: 1.35e+06 M⁻¹ s⁻¹
[9]
  Kd: 7.73 nM
  koff: 0.00892 s⁻¹
  kon: 1.16e+06 M⁻¹ s⁻¹
[3]
  Kd: 0.83 nM
  koff: 0.000965 s⁻¹
  kon: 1.17e+06 M⁻¹ s⁻¹
[10]
  Kd: 2.71 nM
  koff: 0.00364 s⁻¹
  kon: 1.35e+06 M⁻¹ s⁻¹
[11]
  Kd: 14.9 nM
  koff: 0.0197 s⁻¹
  kon: 1.32e+06 M⁻¹ s⁻¹

B3: SIRPAB-1 (antibody, human IgG1, kappa, V domains shown)
VH: QVQLQESGPGLVKPSQTLSLTCTVSGGSISSGGYYWSWIRQHPGKGLEWIGSIYYSGSTYYNPSLKSRVTISVDTSKNQFSLKLSSVTAADTAVYYCAREGYHSGMDVWGQGTTVTVSS
VL: DIQMTQSPSSLSASVGDRVTITCQASQDISNYLNWYQQKPGKAPKLLIYDASNLATGVPSRFSGSGSGTDFTFTISSLQPEDIATYYCQQFAYLPWTFGGGTKVEIKR
[1]
  Kd: 44.2 nM
[7]
  Kd: 4.61 nM
[8]
  Kd: 1.43 nM
[10]
  Kd: 54.9 nM

B4: SIRPAB-2 (antibody, human IgG1, kappa, V domains shown)
VH: QVQLQESGPGLVKPSQTLSLTCTVSGGSISSGGDYWAWIRQHPGKGLEWIGYIYPSGFTYYNPSLKSRVTISVDTSKNQFSLKLSSVTAADTAVYYCAREGYHSGMDVWGQGTTVTVSS
VL: DIQMTQSPSSLSASVGDRVTITCQASQDISNYLNWYQQKPGKAPKLLIYDASNLATGVPSRFSGSGSGTDFTFTISSLQPEDIATYYCQQFAYLPWTFGGGTKVEIKR
[1]
  Kd: 10.7 nM
[7]
  Kd: 0.89 nM
[8]
  Kd: 0.14 nM
[10]
  Kd: 11.9 nM
[11]
  Kd: 19.3 nM

B5: SIRPAB-3 (antibody, human IgG1, kappa, V domains shown)
VH: QVQLQESGPGLVKPSQTLSLTCTVSGGSISSGGWYWQWIRQHPGKGLEWIGTIYYSGSTFYNPSLKSRVTISVDTSKNQFSLKLSSVTAADTAVYYCAREGYHSGMDVWGQGTTVTVSS
VL: DIQMTQSPSSLSASVGDRVTITCQASQDISNYLNWYQQKPGKAPKLLIYDASNLATGVPSRFSGSGSGTDFTFTISSLQPEDIATYYCQQFAYLPWTFGGGTKVEIKR
[6]
  Kd: 0.2 nM
[2]
  Kd: 12.6 nM
[7]
  Kd: 0.22 nM
[8]
  Kd: 0.118 nM
[11]
  Kd: 7.95 nM

B6: SIRPAB-4 (antibody, human IgG1, kappa, V domains shown)
VH: QVQLQESGPGLVKPSQTLSLTCTVSGGSISSGSPYWSWIRQHPGKGLEWIGYIYASGFTYYNPSLKSRVTISVDTSKNQFSLKLSSVTAADTAVYYCAREGYHSGMDVWGQGTTVTVSS
VL: DIQMTQSPSSLSASVGDRVTITCQASQDISNYLNWYQQKPGKAPKLLIYDASNLATGVPSRFSGSGSGTDFTFTISSLQPEDIATYYCQQFAYLPWTFGGGTKVEIKR
[6]
  Kd: 0.45 nM
[1]
  Kd: 18.2 nM
[2]
  Kd: 72.8 nM
[7]
  Kd: 1 nM
[8]
  Kd: 0.144 nM
[11]
  Kd: 18 nM

B7: SIRPAB-5 (antibody, human IgG1, kappa, V domains shown)
VH: QVQLQESGPGLVKPSQTLSLTCTVSGGSISSGPAYWSWIRQHPGKGLEWIGTIYYSGSTFYNPSLKSRVTISVDTSKNQFSLKLSSVTAADTAVYYCAREGYHSGMDVWGQGTTVTVSS
VL: DIQMTQSPSSLSASVGDRVTITCQASQDISNYLNWYQQKPGKAPKLLIYDASNLATGVPSRFSGSGSGTDFTFTISSLQPEDIATYYCQQFAYLPWTFGGGTKVEIKR
[6]
  Kd: 0.165 nM
[1]
  Kd: 27.5 nM
[2]
  Kd: 7.51 nM
[7]
  Kd: 0.15 nM
[8]
  Kd: 0.154 nM

B8: SIRPAB-6 (antibody, human IgG1, kappa, V domains shown)
VH: QVQLQESGPGLVKPSQTLSLTCTVSGGSISSGGYYWSWIRQHPGKGLEWIGYIYYSGSTYYNPSLKSRVTISVDTSKNQFSLKLSSVTAADTAVYYCAREGLDGSYGSSAWGQGTLVTVSS
VL: DIQLTQSPSSLSASVGDRVTITCQASQDISNYLNWYQQKPGKAPKLLIYDASNLETGVPSRFSGSGSGTDFTFTISSLQPEDIATYYCQQFAYLPYTFGGGTKVEIKR
[1]
  binding result: no binding
[2]
  binding result: no binding
[8]
  Kd: 8.36 nM
[10]
  binding result: no binding

B9: SIRPAB-7 (antibody, human IgG1, kappa, V domains shown)
VH: QVQLQESGPGLVKPSQTLSLTCTVSGGSISSGEYYWEWIRQHPGKGLEWIGYIYSSGFTYYNPSLKSRVTISVDTSKNQFSLKLSSVTAADTAVYYCAREGLDGSYGSSAWGQGTLVTVSS
VL: DIQLTQSPSSLSASVGDRVTITCQASQDISNYLNWYQQKPGKAPKLLIYDASNLETGVPSRFSGSGSGTDFTFTISSLQPEDIATYYCQQFAYLPYTFGGGTKVEIKR
[6]
  Kd: 0.15 nM
  koff: 0.000271 s⁻¹
  kon: 1.84e+06 M⁻¹ s⁻¹
[1]
  Kd: 13.2 nM
  koff: 0.00956 s⁻¹
  kon: 730000 M⁻¹ s⁻¹
[7]
  Kd: 2.56 nM
  koff: 0.00391 s⁻¹
  kon: 1.53e+06 M⁻¹ s⁻¹
[8]
  Kd: 0.1 nM
  koff: 0.0002 s⁻¹
  kon: 1.94e+06 M⁻¹ s⁻¹
[12]
  Kd: 0.95 nM
  koff: 0.00165 s⁻¹
  kon: 1.74e+06 M⁻¹ s⁻¹
[9]
  Kd: 0.66 nM
  koff: 0.00143 s⁻¹
  kon: 2.17e+06 M⁻¹ s⁻¹
[3]
  Kd: 10.2 nM
  koff: 0.00718 s⁻¹
  kon: 702000 M⁻¹ s⁻¹
[10]
  Kd: 12.2 nM
  koff: 0.0111 s⁻¹
  kon: 907000 M⁻¹ s⁻¹
[11]
  Kd: 4.59 nM
  koff: 0.00546 s⁻¹
  kon: 1.19e+06 M⁻¹ s⁻¹
[4]
  fold increase over background (100 nM): 2100 fold
[5]
  fold increase over background (100 nM): 2390 fold

B10: SIRPAB-18 (antibody, human IgG1, kappa, V domains shown)
VH: QVQLQESGPGLVKPSQTLSLTCTVSGGSISSGGYYWSWIRQHPGKGLEWIGAIYYSGPIYYNPSLKSRVTISVDTSKNQFSLKLSSVTAADTAVYYCSKEGYHSGMDVWGQGTTVTVSS
VL: DIQMTQSPSSLSASVGDRVTITCQASQDISNYLNWYQQKPGKAPKLLIYDASNLATGVPSRFSGSGSGTDFTFTISSLQPEDIATYYCQQFAYLPWTFGGGTKVEIKR
[13]
  Kd: 2.2 nM

B11: SIRPAB-19 (antibody, human IgG1, kappa, V domains shown)
VH: QVQLQESGPGLVKPSQTLSLTCTVSGGSISSGGYYWSWIRQHPGKGLEWIGAIYYSGPIYYNPSLKSRVTISVDTSKNQFSLKLSSVTAADTAVYYCSKEGYHSGMDVWGQGTTVTVSS
VL: DIQMTQSPSSLSASVGDRVTITCQASDDISDYLNWYQQKPGKAPKLLIYDASNIEDGVPSRFSGSGSGTDFTFTISSLQPEDIATYYCQQFAYLPWTFGGGTKVEIKR
[13]
  Kd: 1.02 nM

B12: SIRPAB-20 (antibody, human IgG1, kappa, V domains shown)
VH: QVQLQESGPGLVKPSQTLSLTCTVSGGSISSGGYYWSWIRQHPGKGLEWIGAIYYSGPIYYNPSLKSRVTISVDTSKNQFSLKLSSVTAADTAVYYCSKEGYHSGMDVWGQGTTVTVSS
VL: DIQMTQSPSSLSASVGDRVTITCQASQDISDYLNWYQQKPGKAPKLLIYDADNLETGVPSRFSGSGSGTDFTFTISSLQPEDIATYYCQQFAYLPWTFGGGTKVEIKR
[13]
  Kd: 0.39 nM
